This note sets out measurements from patent publication US20150276749A1 (KONICA MINOLTA, published 2015).

The target in assay [1] is T1, soluble-type human DSG3-mouse IgG2aFc fusion protein (human; mouse, UniProt P32926 50-616).
T1 construct: also called human desmoglein 3; desmoglein 3 standard; not shown: mouse IgG2a Fc, printed 'mouse IgG2aFc' and 'mouse IgG2 constant region'
T1 sequence: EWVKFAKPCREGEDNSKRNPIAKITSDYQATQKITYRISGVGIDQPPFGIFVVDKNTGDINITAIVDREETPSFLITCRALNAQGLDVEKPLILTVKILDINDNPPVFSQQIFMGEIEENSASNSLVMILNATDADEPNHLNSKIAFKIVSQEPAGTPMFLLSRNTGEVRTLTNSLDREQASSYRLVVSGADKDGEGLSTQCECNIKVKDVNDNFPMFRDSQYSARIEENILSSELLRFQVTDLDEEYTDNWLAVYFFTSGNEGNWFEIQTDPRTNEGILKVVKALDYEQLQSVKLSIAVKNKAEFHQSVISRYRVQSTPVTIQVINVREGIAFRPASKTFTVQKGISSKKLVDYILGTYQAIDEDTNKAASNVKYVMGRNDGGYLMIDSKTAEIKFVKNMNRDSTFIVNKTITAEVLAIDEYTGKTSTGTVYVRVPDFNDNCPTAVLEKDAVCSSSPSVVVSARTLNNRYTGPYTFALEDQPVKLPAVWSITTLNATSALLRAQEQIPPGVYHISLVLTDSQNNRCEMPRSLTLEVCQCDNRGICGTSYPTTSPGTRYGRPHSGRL
The assay is described as follows: sandwich ELISA, luminescence over blank; immobilized DF151, detection D219-3; antigen 40 pg/mL. The method, then: (§1) Subsequently, the antigen solutions having the above-described concentrations were each added to the plate in an amount of 50 μL/well, and the plate was incubated at room temperature for 1 hour. Then, the antigen solution was removed, and the plate was washed with 0.05% Tween 20-PBS three times. Thereafter, the 1-μg/mL biotinylated antibody solution was added in an amount of 50 μL/well, and the plate was incubated at room temperature for 1 hour.
(§2) Then, after removing the streptavidin-HRP solution and washing the plate with 0.05% Tween 20-PBS three times, a substrate solution (SuperSignal ELISA Femto Maximum Sensitivity Substrate (registered trademark); Pierce Biotechnology, Inc.) was added in an amount of 100 μL/well. One minute thereafter, the luminescence intensity was measured using a luminometer, Fluoroskan Ascent FL (trade name, Thermo Electron Corporation).
(§3) The numerical values shown in Table 1 represent the minimum values of the antigen solution concentration having an S/N ratio of higher than 2 (hereinafter, referred to as “detection limit concentration”) and the unit of the numerical values is pg/mL. The S/N ratio was determined by dividing the luminescence intensity at the respective antigen solution concentrations ([…]) by the luminescence intensity of an antigen-free blank antigen solution (0 μg/mL).

The target of assay [2] is T1, soluble-type human DSG3-mouse IgG2aFc …. The experiment in a line: sandwich ELISA, luminescence over blank; immobilized DF151, detection MAB1720; antigen 40 pg/mL. The procedure: as §1, §2, §3
Assay [3] has the same target. The assay is described as follows: sandwich ELISA, luminescence over blank; immobilized DF151, detection D219-3; antigen 1 pg/mL. The method, then:
as §1, §2
(§4) The numerical values shown in Table 1 represent the minimum values of the antigen solution concentration having an S/N ratio of higher than 2 (hereinafter, referred to as “detection limit concentration”) and the unit of the numerical values is pg/mL. […]

The target is the same in assay [4]. The assay is described as follows: sandwich ELISA, luminescence over blank; immobilized DF151, detection DF151; antigen 1000 pg/mL. The procedure: as §1, §2, §3
For assay [5] the target is unchanged. The experiment in a line: sandwich ELISA, luminescence over blank; immobilized DF151, detection DF151; antigen 1 pg/mL. The procedure: as §1, §2, §3
The target is the same in assay [6]. The experiment in a line: sandwich ELISA, luminescence over blank; immobilized DF151, detection DF151; antigen 200 pg/mL. The method, then: as §1, §2, §3
Assay [7] has the same target. The experiment in a line: sandwich ELISA, luminescence over blank; immobilized DF151, detection D219-3; antigen 1000 pg/mL. The procedure:
as §1, §2, §3

For assay [8] the target is unchanged. The assay is described as follows: sandwich ELISA, luminescence over blank; immobilized DF151, detection D219-3; antigen 5000 pg/mL. The method, then: as §1, §2, §3
Assay [9] has the same target. The assay is described as follows: sandwich ELISA, luminescence over blank; immobilized DF151, detection MAB1720; antigen 10 pg/mL. The procedure:
as §1, §2, §4

Assay [10] shares this target. The assay is described as follows: sandwich ELISA, luminescence over blank; immobilized DF151, detection D219-3; antigen 25000 pg/mL. The method, then:
as §1, §2, §3

For assay [11] the target is unchanged. The assay is described as follows: sandwich ELISA, luminescence over blank; immobilized DF151, detection DF151; antigen 10 pg/mL. The procedure: as §1, §2, §4
Assay [12] has the same target. The experiment in a line: sandwich ELISA, luminescence over blank; immobilized DF151, detection DF151; antigen 40 pg/mL. The method, then: as §1, §2, §3
The target is the same in assay [13]. The assay is described as follows: sandwich ELISA, luminescence over blank; immobilized DF151, detection MAB1720; antigen 1000 pg/mL. The procedure:
as §1, §2, §3

For assay [14] the target is unchanged. The assay is described as follows: sandwich ELISA, luminescence over blank; immobilized DF151, detection DF151; antigen 25000 pg/mL. The method, then: as §1, §2, §3

B1: DF151 (DF151[I] antibody) (antibody, mouse IgG2b, kappa, V domains shown)
VH: EVQLQQSGPELVKPGASVKISCKASGYSFTAYYMHWVKQSPEKCLEWIGQINPSTGGTTYNQKFKAKATLTVDKSSSTAYMQLKSLTSEDSAVYYCARWGDSWGQGTTLTVSS
VL: DIVLTQSPASLAVSLGQSVTISCRASESVEYYGTSLMQWYQQKPGQPPKLLIYGASDVESGVPARFSGSGSGTDFSLNIHPVEEDDIAMYFCQQSRKVPYTFGSGTKLEIKR
notes: Complete antibody; Biotinylated as detection antibody in ELISA; labeled with Alexa Fluor 647 as detection antibody in SPFS; also called DF151 antibody
B1: the S/N ratio was found to be 0.8 in assay [1]; 1.1 in [2]; 0.8 in assay [3]; 2.8 in assay [4]; 0.9 in assay [5]; 1.2 in [6]. The S/N ratio was found to be 2.3 in [7]; 9.2 in [8]; 1.1 in [9]; 50.3 in [10]; 0.9 in [11]; 0.9 in assay [12]. Further, the S/N ratio in [13] amounted to 4.1; in assay [14] it was 55.2.
